# Laboratory results as given in patent US20140096274A1 (published 2014).
# T1: human RANK-Fc (human, UniProt Q9Y6Q6 30-212)
# T1 construct: also called hRANK-Fc; hRANK-FC; not shown: Fc part of the bought fusion; not described
# T1 sequence (looked up): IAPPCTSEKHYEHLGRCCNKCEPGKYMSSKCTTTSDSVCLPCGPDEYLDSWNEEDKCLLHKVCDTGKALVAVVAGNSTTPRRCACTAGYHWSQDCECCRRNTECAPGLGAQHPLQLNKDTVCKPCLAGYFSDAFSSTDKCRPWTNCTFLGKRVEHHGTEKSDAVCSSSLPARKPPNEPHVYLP
# T2: murine RANK-Fc (mouse, UniProt O35305 31-214)
# T2 construct: also called mRANK-Fc; mRANK-FC; not shown: Fc part of the bought fusion; not described
# T2 sequence (looked up): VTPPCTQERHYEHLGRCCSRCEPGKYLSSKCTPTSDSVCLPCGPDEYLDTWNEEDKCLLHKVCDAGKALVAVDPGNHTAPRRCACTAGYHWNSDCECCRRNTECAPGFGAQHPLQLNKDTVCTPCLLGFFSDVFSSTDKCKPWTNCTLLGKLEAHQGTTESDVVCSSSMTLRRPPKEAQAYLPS
# Experiments:
# [1] = target: T1, human RANK-Fc; assay: SPR single cycle kinetics, hRANK-Fc captured at 20-40 RU, 1:1 fit
# Procedure: (§1) Considering the high similarity between human RANKL and murine RANKL (>88%) the murine dimers were also tested for hRANK binding. Binding to hRANK-Fc and mRANK-Fc (both from R&D Systems) was recorded for five consecutive concentrations of murine flag RANKL WT, D1 (mD1) or D2 (mD2) (˜0.3-15 nM) using SPR with a single cycle kinetics based approach. The capture level of mRANK-Fc and hRANK-Fc was low (20-40 RU) in order to ensure 1:1 binding. Both WT and the D1 and D2 dimeric variants bound with high affinity towards the mRANK receptor and to the human RANK receptor (FIG. 16: Table 8).
# [2] = target: T2, murine RANK-Fc; assay: SPR single cycle kinetics, mRANK-Fc captured at 20-40 RU, 1:1 fit
# Procedure: as §1
# [3] = target: T2, murine RANK-Fc; assay: ELISA dose response on RANK-Fc coated wells, global four parameter logistic fit
# Procedure: The ability of dimer 1 and dimer 2 to compete with wild-type murine RANKL for binding to mRANK was investigated using a competitive ELISA. […] After washing off unbound RANKL, mRANK bound flag-mRANKL was detected by an anti-flag antibody. A RANKL dimer concentration dependant decrease in mRANK binding and right shift in the EC₅₀ of flag-mRANKL was observed (FIGS. 7 and 18B), indicating a competitive inhibition based mechanism. IC₅₀ values for dimer 1 and dimer 2 were calculated to be 4 nM by a global fit of the individual dose response curves using a four parameter logistic model.
# As the concentration of flagRANKL WT used in the competitive ELISA was above its KD for mRANK-Fc, for mD2 also an EC₅₀ shift experiment was performed. A dose-response curve of 0-50 nM flagRANKL WT binding to RANK-Fc was recorded in the presence and absence of various fixed concentrations of D2 (3, 5, 11, 22 or 43 nM) (FIG. 18B and FIG. 7). […] Upon a global fit of the individual dose response curves using a four parameter logistic model, an EC₅₀ for flag-mRANKL WT of 0.6 nM (±0.04 nM) was obtained and for mD2 an A₂ value of 4 nM (±0.5 nM) was calculated, i.e. the concentration of inhibitor required to shift the dose response curve by a factor of 2.
# [4] = target: T2, murine RANK-Fc; assay: SPR, mRANK-Fc captured at low density on C1 chip, 1:1 Langmuir fit, mean of three experiments
# Procedure: SPR measurements were performed using ˜1500-2000 RU of captured mRANK-Fc on the surface of a CM5 sensor chip (FIGS. 15B and C). This is a density that results in a mean ratio of RANKL:RANK of approx 1:3 (52). […] (Table 5, below) In contrast, the ratio of binding of RANKL variants mD1 and mD2 to mRANK-Fc seems hardly to be affected by receptor density (Table 5). The values obtained after injecting 500 nM of the dimeric variants correlate to binding of 1.5 monomeric subunits by mD1 and 1.6 monomeric subunits by mD2.
# Kinetic binding parameters were also measured for mD1 and mD2 binding to mRANK-FC in real time using SPR using murine RANKL-WT as a control (FIG. 15; table 8). RANKL dimer binding curves to mRANK-Fc captured at low density on the surface of a C1 sensorchip were recorded using concentrations ranging from 100 pM to 562 nM. At very low receptor density, RANKL proteins bind only one receptor molecule, allowing the data to be fitted to a Langmuir 1:1 interaction model (29). RANKL WT needed a very low density (<20 resonance units (RU)) to come close to a 1:1 ratio (FIG. 3A). […] Maximum binding of 5.5 RU is reached, which is slightly lower than the expected Rₘₐₓ value of 6.8 RU for a 1:1 ratio, but definitely larger than 3.4 RU, the Rₘₐₓ value expected for a binding ratio of 2 molecules of RANK per flag-mRANKL WT trimer. Similar to mRANKL WT, binding of RANKL mD1 or mD2 to mRANK-Fc results in slightly lower Rₘₐₓ values than expected for a 1:1 binding ratio: 24 RU D1 compared to 26 RU, and 20 RU D2 compared to 23 RU (FIG. 15A). These binding ratio's could be reached with mD1 and mD2 at densities of mRANK-Fc of <50 RU. The approximate 1:1 binding of RANKL proteins to mRANK-Fc allows fitting the data to the 1:1 Langmuir binding model.
binder,measurement,setting,value
"murine flagRANKL WT (wild-type mRANKL containing an N-terminal flagtag) (ligand, mouse, UniProt O35235 160-316, looked up, Trimeric; also called flag-mRANKL WT; mWT; not shown: N-terminal flagtag) EAQPFAHLTINAASIPSGSHKVTLSSWYHDRGWAKISNMTLSNGKLRVNQDGFYYLYANICFRHHETSGSVPTDYLQLMVYVVKTSIKIPSSHNLMKGGSTKNWSGNSEFHFYSINVGGFFKLRAGEEISIQVSNPSLLDPDQDATYFGAFKVQDID",Kd,[1],0.104 nM
same,koff,[1],0.000575 s⁻¹
same,kon,[1],5.63e+06 M⁻¹ s⁻¹
same,Kd,[2],0.0315 nM
same,koff,[2],0.000189 s⁻¹
same,kon,[2],6.14e+06 M⁻¹ s⁻¹
same,EC50,[3],0.6 nM
same,Ka,[4],4.4e+10 M⁻¹
same,Kd,[4],0.065 nM
same,koff,[4],0.00034 s⁻¹
same,kon,[4],5.9e+06 M⁻¹ s⁻¹
